Measured values from patent US20210079074A1 (Alector, published 2021).
Changes are numbered by the printed parent chain. Like-named read-outs stand apart in the source and are kept apart here. Each block holds one binder with its values, some of them ahead of it.

Columns and labels:
[1] = biological target: T1, recombinant MS4A4A soluble polypeptide JS1; experiment: ELISA, 1 ug/ml antibody
T1 construct: also called JS1.His; loop grafted antigen
Protocol: (§1) Anti-MS4A4A antibodies of the present disclosure were tested for their ability to bind to the different recombinant MS4A4A soluble polypeptides, as described in Example 2, as follows. Nucleic acid encoding the VH and VL domains of humanized anti-MS4A4A antibodies of the present disclosure were cloned into pcDNA3.4 vector which contains either the human IgG1 heavy chain constant domain or human kappa constant domain. The humanized anti-MS4A4A antibodies were expressed in Expi293 cells and were purified by Mab select antibody purification resin (GE Healthcare Life Science, cat#17519902) following the manufacture's protocol. ELISA was performed to measure binding of anti-MS4A4A antibodies of the present disclosure the recombinant MS4A4A soluble polypeptides. 1 μg/ml biotinylated antigens were preincubated on the streptavidin-coated ELISA plates (Thermo Scientific, cat#PI15120) for 1 hour. Plates were washed 3 times, followed by the addition of antibodies (1 μg/ml, 0.33 μg/ml, and 0.11 μg/ml antibodies. Plates were incubated at room temperature with shaking for 1 hr, washed 3 times, then 1/2500 dilution of HRP conjugates goat anti human kappa antibodies added (SigmaAldrich cat#. A7164-1ML).

[2] = biological target: T2, recombinant MS4A4A soluble polypeptide JS5; experiment: ELISA, 1 ug/ml antibody
T2 construct: also called JS5.His
Protocol: as §1

[3] = biological target: T2, recombinant MS4A4A soluble polypeptide …; experiment: ELISA, 0.11 ug/ml antibody
Protocol: as §1

[4] = biological target: T2, recombinant MS4A4A soluble polypeptide …; experiment: ELISA, 0.33 ug/ml antibody
Protocol: as §1

[5] = biological target: T3, human MS4A4A (human, UniProt Q96JQ5 1-239); experiment: FACS, U937-huMS4A4A, 5 ug/ml
Protocol: (§2) Anti-MS4A4A antibodies tested were either mouse IgGs purified from hybridoma supernatant or human IgG1 Fc chimeras produced recombinantly in Expi293 cells. Affinity binding to cells was determined as follows. Briefly, cells were harvested, washed, and labeled with Aqua Live/Dead for viability discrimination. After a wash with PBS, 2×10\hat{ }4 cells were aliquoted per well in 96-well U-bottom plates and incubated with 50 μL of purified anti-MS4A4A antibody at various concentrations (3× dilutions starting at 10 μg/mL) in FACS buffer (PBS+2% FBS+1 mM EDTA). After this primary incubation, the supernatant was removed via centrifugation, washed 2× with 150 μL of ice-cold FACS buffer, and incubated with the appropriate secondary antibody on ice for 15 minutes. Following the secondary antibody incubation, the cells were again washed 2× with ice-cold FACS buffer and resuspended in a final volume of 200 μL of FACS buffer. Flow cytometry analysis was performed on a FACSCanto system (BD Biosciences). Binding data was expressed as Median Fluorescent Intensity (MFI).
(§3) These experiments were performed using anti-MS4A4A antibodies at a concentration of 5 μg/ml and were assayed for cell binding by flow cytometry.

[6] = biological target: T3, human MS4A4A; experiment: FACS, U937-huMS4A4A, 5 ug/ml; remark: listed apart in the source
Protocol: as §2, §3

[7] = biological target: T1, recombinant MS4A4A soluble polypeptide …; experiment: ELISA, biotin-antigen on streptavidin plate
Protocol: as §1

[8] = biological target: T4, negative control polypeptide JS4; experiment: ELISA, biotin-antigen on streptavidin plate
T4 construct: negative control for JS1; also called JS4.His
Protocol: as §1

[9] = biological target: T2, recombinant MS4A4A soluble polypeptide …; experiment: ELISA, biotin-antigen on streptavidin plate
Protocol: as §1

[10] = biological target: T5, recombinant MS4A4A soluble polypeptide JS6; experiment: ELISA, biotin-antigen on streptavidin plate
T5 construct: also called JS6.His
Protocol: as §1

[11] = biological target: T6, negative control polypeptide JS10; experiment: ELISA, biotin-antigen on streptavidin plate
T6 construct: negative control for JS5 and JS6; also called JS10.His
Protocol: as §1

[12] = biological target: T7, FcγRIIa receptor (H131 variant) (UniProt P12318 34-317, limits assumed); experiment: cell-based or functional assay
T7 sequence (looked up): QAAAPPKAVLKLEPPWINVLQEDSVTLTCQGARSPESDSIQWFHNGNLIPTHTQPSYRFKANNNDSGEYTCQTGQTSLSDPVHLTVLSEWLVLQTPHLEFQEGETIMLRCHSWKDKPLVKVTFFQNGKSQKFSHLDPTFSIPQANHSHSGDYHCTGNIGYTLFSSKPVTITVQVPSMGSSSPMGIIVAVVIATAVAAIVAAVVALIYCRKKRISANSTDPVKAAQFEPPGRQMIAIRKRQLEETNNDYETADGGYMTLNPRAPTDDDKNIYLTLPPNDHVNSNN

[13] = biological target: FcγRIIIa receptor (V158 variant) (UniProt P08637 17-254); experiment: cell-based or functional assay
[14] = biological target: T2, recombinant MS4A4A soluble polypeptide …; experiment: ELISA, 0.4 ug/ml antibody

Sequence of FcγRIIIa receptor (V158 variant) (P08637 other isoform, or with tags, fused parts or gaps mutant limits assumed): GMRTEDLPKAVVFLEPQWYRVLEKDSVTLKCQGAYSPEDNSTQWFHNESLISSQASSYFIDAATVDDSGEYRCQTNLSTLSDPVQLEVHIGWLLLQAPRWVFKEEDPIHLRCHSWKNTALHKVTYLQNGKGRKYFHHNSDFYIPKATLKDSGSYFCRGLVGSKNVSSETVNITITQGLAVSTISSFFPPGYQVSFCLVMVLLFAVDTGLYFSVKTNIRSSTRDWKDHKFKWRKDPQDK

OD450 [1]: 0.127
ELISA OD [2]: 0.128
ELISA OD [3]: 0.091
ELISA OD [4]: 0.103
MFI [5]: 113
MFI [6]: 24400
B1: anti-MS4A4A antibody 4A-302 (antibody, human IgG1, V domains shown)
VH: QVQLVQSGAEVKKPGASVKVSCKASGYTFTNYWMQWVRQAPGQGLEWMGATHPGHGDTRYAQKFQGRVTMTRDTSTSTVYMELSSLRSEDTAVYYCAREEVYYGFRSYWYFDVWGRGTLVTVSS
VL: EIVLTQSPATLSLSPGERATLSCRASESVDNYGVSFMNWYQQKPGQAPRLLIYGASNQGSGIPARFSGSGSGTDFTLTISSLEPEDFAVYYCQQSKEVPPTFGGGTKVEIK
notes: human IgG1/kappa

ELISA OD [2]: 1.14
ELISA OD [3]: 0.399
ELISA OD [4]: 0.682
MFI [6]: 15300
B2: anti-MS4A4A antibody 4A-314 (antibody, V domains shown)
VH: B1 VH with A50T, H52L
VL: B1 VL with F36R
notes: full human IgG

ELISA OD [2]: 0.184
ELISA OD [3]: 0.097
ELISA OD [4]: 0.11
MFI [6]: 17700
B3: anti-MS4A4A antibody 4A-312 (antibody, V domains shown)
VH: B1 VH with Y102D
VL: B1 VL with G59Q
notes: full human IgG

MFI [5]: 382
ELISA OD [7]: 0.146
ELISA OD [8]: 0.098
ELISA OD [9]: 0.099
ELISA OD [10]: 0.105
ELISA OD [11]: 0.092
B4: anti-MS4A4A antibody 4A-18 (antibody, V domains shown)
VH: QVQLQQPGTELVKPGASVKLSCKASGYTFTSYWIHWVKQRPGQGLEWIGNINPTNGGTNYNERFKSKATLTVDKSSSTAYMQLSSLTSEDSAVYYCARAYYYGSSLFAYWGQGTLVTVSS
VL: DIVMTQSQKFMSTTVGDRVSITCKASQNVGTAVAWSQQKPGQSPKLLIYSASYRHTGVPDRFTGSGSGTDFTLTITNMQSEDLADYFCQQYSTYPWTFGGGTKLEIK
notes: murine parental; tested as mouse IgG1 or as human IgG1 Fc chimera (hFc), told under assay; also called 4A-18.hFc

luminescence, ADCP reporter, 3.048316 ng/mL [12]: 48
luminescence, ADCP reporter, 9.144947 ng/mL [12]: 54
luminescence, ADCP reporter, 27.43484 ng/mL [12]: 80
luminescence, ADCP reporter, 82.30453 ng/mL [12]: 64
luminescence, ADCP reporter, 246.9136 ng/mL [12]: 98
luminescence, ADCP reporter, 740.7407 ng/mL [12]: 85
luminescence, ADCP reporter, 2,222.222 ng/mL [12]: 128
luminescence, ADCP reporter, 6,666.667 ng/mL [12]: 403
luminescence, ADCP reporter, 20,000 ng/mL [12]: 455
luminescence, ADCC reporter, 3.048316 ng/mL [13]: 346
luminescence, ADCC reporter, 9.144947 ng/mL [13]: 367
luminescence, ADCC reporter, 27.43484 ng/mL [13]: 473
luminescence, ADCC reporter, 82.30453 ng/mL [13]: 839
luminescence, ADCC reporter, 246.9136 ng/mL [13]: 2060
luminescence, ADCC reporter, 740.7407 ng/mL [13]: 4350
luminescence, ADCC reporter, 2,222.222 ng/mL [13]: 5130
luminescence, ADCC reporter, 6,666.667 ng/mL [13]: 4890
luminescence, ADCC reporter, 20,000 ng/mL [13]: 4400
ELISA OD [2]: 1.26
ELISA OD [3]: 0.741
ELISA OD [4]: 1.05
MFI [6]: 41800
B5: anti-MS4A4A antibody 4A-313 wildtype (WT) huIgG1 (antibody)
heavy: not shown
light: EIVLTQSPATLSLSPGERATLSCRASESVDNYGVSRMNWYQQKPGQAPRLLIYGASNQGSGIPARFSGSGSGTDFTLTISSLEPEDFAVYYCQQSKEVPPTFGGGTKVEIKRTVAAPSVFIFPPSDEQLKSGTASVVCLLNNFYPREAKVQWKVDNALQSGNSQESVTEQDSKDSTYSLSSTLTLSKADYEKHKVYACEVTHQGLSSPVTKSFNRGEC
notes: also called 4A-313 WT huIgG1; 4A-313.WT

OD450 [14]: 0.939
MFI [6]: 11600
B6: anti-MS4A4A antibody 4A-350 (antibody, V domains shown)
VH: QVQLVQSGSELKKPGASVKVSCKASGYIFTSYGLSWVRQAPGQGLEWMGWINTYSGVPTYAQGFTGRFVFSLDTSVSTAYLQISSLKAEDTAVYYCARTLADYWGQGTLVTVSS
VL: DVVMTQSPLSLPVTLGQPASISCKSSQSLLYSDGKTYLSWFQQRPGQSPRRLIYLVSKLDSGVPDRFSGSGSGTDFTLKISRVEAEDVGVYYCWQGIDFHQTFGGGTKVEIK
notes: full human IgG

OD450 [14]: 0.901
MFI [6]: 12100
B7: anti-MS4A4A antibody 4A-358 (antibody, V domains shown)
VH: B6 VH
VL: B6 VL with D98R
notes: full human IgG

OD450 [1]: 1.91
ELISA OD [2]: 0.997
OD450 [14]: 0.821
ELISA OD [3]: 0.677
ELISA OD [4]: 0.851
MFI [5]: 324
MFI [6]: 8820
B8: anti-MS4A4A antibody 4A-332 (antibody, human IgG1, V domains shown)
VH: B6 VH with T99S, A101V
VL: B6 VL
notes: humanized 4A-21; human IgG1/kappa

OD450 [14]: 0.907
MFI [6]: 11900
B9: anti-MS4A4A antibody 4A-373 (antibody, V domains shown)
VH: B6 VH with A101V
VL: B6 VL with Q27R
notes: full human IgG

ELISA OD [2]: 1.04
OD450 [14]: 0.977
ELISA OD [3]: 0.83
ELISA OD [4]: 1.03
MFI [6]: 16700
B10: anti-MS4A4A antibody 4A-376 (antibody, V domains shown)
VH: B6 VH with T99S, L100M
VL: B6 VL with Q27R
notes: full human IgG

OD450 [14]: 0.852
MFI [6]: 10100
B11: anti-MS4A4A antibody 4A-369 (antibody, V domains shown)
VH: B6 VH with I28T, V37I, L100M, A101V
VL: B6 VL with D98R
notes: full human IgG

ELISA OD [2]: 0.953
OD450 [14]: 0.99
ELISA OD [3]: 0.816
ELISA OD [4]: 0.898
MFI [6]: 12200
B12: anti-MS4A4A antibody 4A-351 (antibody, V domains shown)
VH: B6 VH
VL: B6 VL with Q27R
notes: full human IgG

OD450 [14]: 0.797
MFI [6]: 10300
B13: anti-MS4A4A antibody 4A-360 (antibody, V domains shown)
VH: B6 VH
VL: B6 VL with S26G, K58R
notes: full human IgG

OD450 [14]: 0.908
MFI [6]: 10000
B14: anti-MS4A4A antibody 4A-362 (antibody, V domains shown)
VH: B6 VH
VL: B6 VL with K58R
notes: full human IgG
